According to paper PMC6497670:
Each block holds one substance with its values, some of them ahead of it.

Assays:
Experiment in all cases: PELDOR/DEER EPR; MTSSL-labelled protein reconstituted in soybean phosphatidylcholine liposomes (1:20 protein/lipid), 50 mM KPi pH 8.0, spin concentration 80-130 µM, 20% deuterated glycerol, Q-band, 50 K; monomer to dimer
[1] = target: SLC26Dg K353R1 (single-cysteine mutant K353C labelled with MTSSL) (Deinococcus geothermalis)
[2] = target: SLC26Dg V367R1 (single-cysteine mutant V367C labelled with MTSSL) (Deinococcus geothermalis)
[3] = target: SLC26Dg L385R1 (single-cysteine mutant L385C labelled with MTSSL) (Deinococcus geothermalis)

stoichiometry N [1]: 2
Substance: SLC26Dg K353R1 (single-cysteine mutant K353C labelled with MTSSL) (natural protein)

stoichiometry N [2]: 2
Substance: SLC26Dg V367R1 (single-cysteine mutant V367C labelled with MTSSL) (natural protein)

stoichiometry N [3]: 2
Substance: SLC26Dg L385R1 (single-cysteine mutant L385C labelled with MTSSL) (natural protein)
